The target in the experiment is myostatin pro peptide (wild type) (human) (UniProt O14793). Kind of experiment: cell-based or functional assay.
myostatin pro peptide (wild type) (human), sequence (O14793 24-266): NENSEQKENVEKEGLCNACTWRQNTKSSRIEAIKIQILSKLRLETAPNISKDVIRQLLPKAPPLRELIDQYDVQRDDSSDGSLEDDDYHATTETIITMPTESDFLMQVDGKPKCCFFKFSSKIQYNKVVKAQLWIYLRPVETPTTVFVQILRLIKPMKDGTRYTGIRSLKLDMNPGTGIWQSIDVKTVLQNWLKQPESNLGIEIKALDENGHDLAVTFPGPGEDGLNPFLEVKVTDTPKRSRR

“mammalian Tolloid-like-1 (mTLL-1) (from UniProt O43897 148-1013) (enzyme)” had a fraction of the proteolytically-cleaved myostatin complex active in the reporter assay of more than 50%.
